This assay addresses Hepatocyte Growth Factor (HGF) (UniProt P14210 32-728). Kind of assay: ELISA.

Sequence of Hepatocyte Growth Factor (HGF) (P14210 32-728): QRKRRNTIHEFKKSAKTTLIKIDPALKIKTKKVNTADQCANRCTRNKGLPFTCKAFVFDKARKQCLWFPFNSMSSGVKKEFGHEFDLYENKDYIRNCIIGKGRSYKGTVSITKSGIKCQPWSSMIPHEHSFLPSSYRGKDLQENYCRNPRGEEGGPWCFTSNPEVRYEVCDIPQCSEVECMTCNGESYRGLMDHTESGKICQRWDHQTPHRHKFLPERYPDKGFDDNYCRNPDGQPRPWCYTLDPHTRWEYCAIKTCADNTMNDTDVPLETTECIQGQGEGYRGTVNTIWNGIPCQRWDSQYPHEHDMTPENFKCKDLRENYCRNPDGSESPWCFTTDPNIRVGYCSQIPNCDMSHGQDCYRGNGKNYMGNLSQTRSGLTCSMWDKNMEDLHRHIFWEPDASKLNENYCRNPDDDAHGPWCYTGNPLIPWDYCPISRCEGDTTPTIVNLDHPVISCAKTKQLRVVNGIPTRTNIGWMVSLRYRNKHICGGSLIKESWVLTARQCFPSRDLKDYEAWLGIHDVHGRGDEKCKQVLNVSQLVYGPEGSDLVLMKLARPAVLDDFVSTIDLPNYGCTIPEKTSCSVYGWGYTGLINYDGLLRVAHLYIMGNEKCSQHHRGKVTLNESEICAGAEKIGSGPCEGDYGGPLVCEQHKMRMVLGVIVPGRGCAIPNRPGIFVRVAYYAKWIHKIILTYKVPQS

B1: decoyMET^K842E (receptor)
chain: ECKEALAKSEMNVNMKYQLPNFTAETPIQNVILHEHHIFLGATNYIYVLNEEDLQKVAEYKTGPVLEHPDCFPCQDCSSKANLSGGVWKDNINMALVVDTYYDDQLISCGSVNRGTCQRHVFPHNHTADIQSEVHCIFSPQIEEPSQCPDCVVSALGAKVLSSVKDRFINFFVGNTINSSYFPDHPLHSISVRRLKETKDGFMFLTDQSYIDVLPEFRDSYPIKYVHAFESNNFIYFLTVQRETLDAQTFHTRIIRFCSINSGLHSYMEMPLECILTEKRKKRSTKKEVFNILQAAYVSKPGAQLARQIGASLNDDILFGVFAQSKPDSAEPMDRSAMCAFPIKYVNDFFNKIVNKNNVRCLQHFYGPNHEHCFNRTLLRNSSGCEARRDEYRTEFTTALQRVDLFMGQFSEVLLTSISTFIKGDLTIANLGTSEGRFMQVVVSRSGPSTPHVNFLLDSHPVSPEVIVEHTLNQNGYTLVITGKKITKIPLNGLGCRHFQSCSQCLSAPPFVQCGWCHDKCVRSEECLSGTWTQQICLPAIYKVFPNSAPLEGGTRLTICGWDFGFRRNNKFDLKKTRVLLGNESCTLTLSESTMNTLKCTVGPAMNKHFNMSIIISNGHGTTQYSTFSYVDPVITSISPKYGPMAGGTLLTLTGNYLNSGNSRHISIGGKTCTLKSVSNSILECYTPAQTISTEFAVKLKIDLANRETSIFSYREDPIVYEIHPTKSFISGGSTITGVGKNLNSVSVPRMVINVHEAGRNFTVACQHRSNSEIICCTTPSLQQLNLQLPLKTKAFFMLDGILSKYFDLIYVHNPVFEPFEKPVMISMGNENVLEIKGNDIDPEAVKGEVLKVGNKSCENIHLHSEAVLCTVPNDLLKLNSELNIEWKQAISSTVLGKVIVQPDQNFTASGAAWSHPQFEKGAAWSHPQFEKGAAWSHPQFEKGAAHHHHHH
As for B1, the affinity, expressed as Kd, was 251 pM.

Source of the values: patent US20210070868A1 (published 2021).
